B1: R2: rice EPSPS mutant, SEQ ID NO: 32, merely containing the mutation P116(101)S; control (protein)
chain: MASNAAAAAAKAEEIVLQPIREISGAVQLPGSKSLSNRILLLSALSEGTTVVDNLLNSEDVHYMLEALKALGLSVEADKVAKRAVVVGCGGKFPVEKDAKEEVQLFLGNAGTAMRSLTAAVTAAGGNATYVLDGVPRMRERPIGDLVVGLKQLGADVDCFLGTECPPVRVKGIGGLPGGKVKLSGSISSQYLSALLMAAPLALGDVEIEIIDKLISIPYVEMTLRLMERFGVKAEHSDSWDRFYIKGGQKYKSPGNAYVEGDASSASYFLAGAAITGGTVTVQGCGTTSLQGDVKFAEVLEMMGAKVTWTDTSVTVTGPPREPYGKKHLKAVDVNMNKMPDVAMTLAVVALFADGPTAIRDVASWRVKETERMVAIRTELTKLGASVEEGPDYCIITPPEKLNITAIDTYDDHRMAMAFSLAACADVPVTIRDPGCTRKTFPNYFDVLSTFVRN
B2: R4: rice EPSPS mutant, SEQ ID NO: 36, mutation S267(247)G (protein)
chain: MASNAAAAAAKAEEIVLQPIREISGAVQLPGSKSLSNRILLLSALSEGTTVVDNLLNSEDVHYMLEALKALGLSVEADKVAKRAVVVGCGGKFPVEKDAKEEVQLFLGNAGTAMRPLTAAVTAAGGNATYVLDGVPRMRERPIGDLVVGLKQLGADVDCFLGTECPPVRVKGIGGLPGGKVKLSGSISSQYLSALLMAAPLALGDVEIEIIDKLISIPYVEMTLRLMERFGVKAEHSDSWDRFYIKGGQKYKSPGNAYVEGDASSAGYFLAGAAITGGTVTVQGCGTTSLQGDVKFAEVLEMMGAKVTWTDTSVTVTGPPREPYGKKHLKAVDVNMNKMPDVAMTLAVVALFADGPTAIRDVASWRVKETERMVAIRTELTKLGASVEEGPDYCIITPPEKLNITAIDTYDDHRMAMAFSLAACADVPVTIRDPGCTRKTFPNYFDVLSTFVRN
B3: R3: rice EPSPS mutant, SEQ ID NO: 34, mutations L214(195)P and P116(101)S (protein)
chain: MASNAAAAAAKAEEIVLQPIREISGAVQLPGSKSLSNRILLLSALSEGTTVVDNLLNSEDVHYMLEALKALGLSVEADKVAKRAVVVGCGGKFPVEKDAKEEVQLFLGNAGTAMRSLTAAVTAAGGNATYVLDGVPRMRERPIGDLVVGLKQLGADVDCFLGTECPPVRVKGIGGLPGGKVKLSGSISSQYLSALLMAAPLALGDVEIEIIDKPISIPYVEMTLRLMERFGVKAEHSDSWDRFYIKGGQKYKSPGNAYVEGDASSASYFLAGAAITGGTVTVQGCGTTSLQGDVKFAEVLEMMGAKVTWTDTSVTVTGPPREPYGKKHLKAVDVNMNKMPDVAMTLAVVALFADGPTAIRDVASWRVKETERMVAIRTELTKLGASVEEGPDYCIITPPEKLNITAIDTYDDHRMAMAFSLAACADVPVTIRDPGCTRKTFPNYFDVLSTFVRN

Test system: transgenic rice plants
Assay: glyphosate resistance of the EPSPS mutant in transgenic rice plants sprayed with Roundup 41% ammonium glyphosate
Assay type: in vivo, rice (Nipponbare)
How it was run: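 EPSPS mutant genes were cloned into pGVP1 and introduced into Nipponbare rice embryo-derived calluses via Agrobacterium EHA105 (OD 0.2, 10 min infection, 2–3 days co-culture at 25 °C in the dark). Calluses went through recovery, two 14-day screening rounds at 30 °C, two differentiation rounds and rooting to regenerate transgenic plants.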

[1] = 1× dosage 1060 g/hectare glyphosate sprayed, recorded on 10th day
[2] = 2× dosage 2120 g/hectare sprayed to plants surviving 1×, recorded 10 days later
[3] = 5× dosage 5300 g/hectare sprayed to plants surviving 2×, recorded 10 days later
[4] = 20× dosage 21200 g/hectare sprayed to plants surviving 5×, recorded 10 days later

Row | Molecule | %++&+++ (percentage of plant having medium and high glyphosate resistance to the total number of plants observed) [1] [%] | number of plants denoted by + (low glyphosate resistance) [1] | number of plants denoted by ++ (medium glyphosate resistance) [1] | number of plants denoted by +++ (high glyphosate resistance) [1] | number of plants denoted by − (no glyphosate resistance) [1] | glyphosate resistance / survival of the rice transformed by the EPSPS, in words (1× glyphosate dosage) | number of plants denoted by + (low glyphosate resistance) [2] | number of plants denoted by ++ (medium glyphosate resistance) [2] | number of plants denoted by +++ (high glyphosate resistance) [2] | number of plants denoted by − (no glyphosate resistance) [2] | glyphosate resistance / survival of the rice transformed by the EPSPS, in words (2× glyphosate dosage) | &++&+++ (percentage of plant having medium and high glyphosate resistance to the total number of plants observed) [3] [%] | number of plants denoted by + (low glyphosate resistance) [3] | number of plants denoted by ++ (medium glyphosate resistance) [3] | number of plants denoted by +++ (high glyphosate resistance) [3] | number of plants denoted by − (no glyphosate resistance) [3] | &++&+++ (percentage of plant having medium and high glyphosate resistance to the total number of plants observed) [4] [%] | number of plants denoted by + (low glyphosate resistance) [4] | number of plants denoted by ++ (medium glyphosate resistance) [4] | number of plants denoted by +++ (high glyphosate resistance) [4] | further results
1 | B1 | 81.0 | 9 | 10 | 37 | 2 | had relatively high resistance to glyphosate | 17 | 18 | 14 | 9 | had relatively high resistance to glyphosate | 3.4 | 40 | 2 | 0 | 16 | 0.0 | 1 | 0 | 0 | %++&+++ (percentage of plant having medium and high glyphosate resistance to the total number of plants observed) [2]: 26.8%; number of plants denoted by − (no glyphosate resistance) [4]: 57
2 | B2 | 66.7 | 46 | 62 | 44 | 7 | obviously superior to that of the rice seedlings transformed by R0 | 136 | 10 | 2 | 11 | some of the transgenic rice seedlings transformed by R1 and R4 still survived | 0.0 | 67 | 0 | 0 | 92 | 0.0 | 8 | 0 | 0 | glyphosate resistance / survival of the rice transformed by the EPSPS, in words (5× glyphosate dosage): some of the transgenic rice seedlings transformed by R1 and R4 still survived; number of plants denoted by − (no glyphosate resistance) [4]: 151; glyphosate resistance / survival of the rice transformed by the EPSPS, in words (20× glyphosate dosage): some of the transgenic rice seedlings transformed by R1 and R4 still survived
3 | B3 | 76.8 | 18 | 39 | 24 | 1 | had relatively high resistance to glyphosate | 59 | 12 | 10 | 1 | had relatively high resistance to glyphosate | 13.4 | 59 | 11 | 0 | 12 | 7.3 | 28 | 6 | 0 | %++&+++ (percentage of plant having medium and high glyphosate resistance to the total number of plants observed) [2]: 7.5%; number of plants denoted by − (no glyphosate resistance) [4]: 48
